One block for each sequence: values may come before it.
Legend:
HLA-A*02:01 [1] = experiment: IEDB peptide-MHC binding, purified MHC/direct/fluorescence; filed as Kd, often an IC50 or EC50 that approximates it; ≥ and ≤ were set here for values at or beyond the usual limits of such assays; details: source organism: Homo sapiens
HLA-A*25:01 [2] = experiment: IEDB peptide-MHC binding, purified MHC/competitive/fluorescence; filed as Kd, often an IC50 or EC50 that approximates it; ≥ and ≤ were set here for values at or beyond the usual limits of such assays; details: source organism: Homo sapiens
HLA-A*26:01 [3] = experiment: as above
HLA-A*80:01 [4] = experiment: as above; details: source organism: Homo sapiens
HLA-B*15:01 = experiment: as above
HLA-B*15:17 [5] = experiment: as above
HLA-B*18:01 [6] = experiment: as above
HLA-B*27:03 = experiment: as above
HLA-B*46:01 [7] = experiment: as above
HLA-B*51:01 [8] = experiment: as above
HLA-B*57:01 = experiment: as above
HLA-A*02:01 [9] = experiment: as above; details: source organism: Campylobacter jejuni subsp. jejuni NCTC 11168 = ATCC 700819
HLA-A*02:03 = experiment: as above; details: source organism: Campylobacter jejuni subsp. jejuni NCTC 11168 = ATCC 700819
HLA-A*02:11 = experiment: as above; details: source organism: Campylobacter jejuni subsp. jejuni NCTC 11168 = ATCC 700819
HLA-A*02:12 = experiment: as above; details: source organism: Campylobacter jejuni subsp. jejuni NCTC 11168 = ATCC 700819
HLA-A*02:16 = experiment: as above; details: source organism: Campylobacter jejuni subsp. jejuni NCTC 11168 = ATCC 700819
HLA-A*02:19 = experiment: as above; details: source organism: Campylobacter jejuni subsp. jejuni NCTC 11168 = ATCC 700819
HLA-A*03:01 [10] = experiment: as above; details: source organism: Campylobacter jejuni subsp. jejuni NCTC 11168 = ATCC 700819
HLA-A*23:01 = experiment: as above; details: source organism: Campylobacter jejuni subsp. jejuni NCTC 11168 = ATCC 700819
HLA-A*24:03 = experiment: as above; details: source organism: Campylobacter jejuni subsp. jejuni NCTC 11168 = ATCC 700819
HLA-A*29:02 [11] = experiment: as above; details: source organism: Campylobacter jejuni subsp. jejuni NCTC 11168 = ATCC 700819
HLA-A*68:02 [12] = experiment: as above; details: source organism: Campylobacter jejuni subsp. jejuni NCTC 11168 = ATCC 700819
HLA-A*69:01 = experiment: as above; details: source organism: Campylobacter jejuni subsp. jejuni NCTC 11168 = ATCC 700819
HLA-B*39:01 = experiment: as above; details: source organism: Campylobacter jejuni subsp. jejuni NCTC 11168 = ATCC 700819
HLA-A*01:01 = experiment: IEDB peptide-MHC binding, purified MHC/competitive/fluorescence; ≥ and ≤ were set here for values at or beyond the usual limits of such assays; details: source organism: Monodelphis domestica
HLA-A*02:01 [13] = experiment: as above; details: source organism: Monodelphis domestica
HLA-A*03:01 [14] = experiment: as above; details: source organism: Monodelphis domestica
HLA-A*11:01 = experiment: as above; details: source organism: Monodelphis domestica
HLA-A*24:02 = experiment: as above; details: source organism: Monodelphis domestica
HLA-A*25:01 [15] = experiment: as above; details: source organism: Monodelphis domestica
HLA-A*29:02 [16] = experiment: as above; details: source organism: Monodelphis domestica
HLA-A*31:01 = experiment: as above; details: source organism: Monodelphis domestica
HLA-A*68:02 [17] = experiment: as above; details: source organism: Monodelphis domestica
HLA-B*07:02 = experiment: as above; details: source organism: Monodelphis domestica
HLA-B*08:01 = experiment: as above; details: source organism: Monodelphis domestica
HLA-B*14:02 = experiment: as above; details: source organism: Monodelphis domestica
HLA-B*18:01 [18] = experiment: as above; details: source organism: Monodelphis domestica
HLA-B*35:01 = experiment: as above; details: source organism: Monodelphis domestica
HLA-B*37:01 = experiment: as above; details: source organism: Monodelphis domestica
HLA-B*40:02 = experiment: as above; details: source organism: Monodelphis domestica
HLA-B*44:03 = experiment: as above; details: source organism: Monodelphis domestica
HLA-B*51:01 [19] = experiment: as above; details: source organism: Monodelphis domestica
HLA-B*53:01 = experiment: as above; details: source organism: Monodelphis domestica
HLA-B*58:01 [20] = experiment: as above; details: source organism: Monodelphis domestica
HLA-B*58:01 [21] = experiment: IEDB peptide-MHC binding, cellular MHC/competitive/fluorescence; ≥ and ≤ were set here for values at or beyond the usual limits of such assays; details: source organism: Human herpesvirus 4 strain B95-8
HLA-A*03:01 [22] = experiment: IEDB peptide-MHC binding, purified MHC/direct/fluorescence; filed as Kd, often an IC50 or EC50 that approximates it; ≥ and ≤ were set here for values at or beyond the usual limits of such assays; details: source organism: Cryptosporidium parvum Iowa II
HLA-A*25:01 [23] = experiment: as above; details: source organism: Cryptosporidium parvum Iowa II
HLA-A*26:01 [24] = experiment: as above; details: source organism: Cryptosporidium parvum Iowa II
HLA-A*80:01 [25] = experiment: as above; details: source organism: Cryptosporidium parvum Iowa II
HLA-B*15:17 [26] = experiment: as above; details: source organism: Cryptosporidium parvum Iowa II
HLA-B*18:01 [27] = experiment: as above; details: source organism: Cryptosporidium parvum Iowa II
HLA-B*46:01 [28] = experiment: as above; details: source organism: Cryptosporidium parvum Iowa II
[29] = source organism: Campylobacter jejuni subsp. jejuni NCTC 11168 = ATCC 700819

Sequence: HLLCQAFSV
- Kd (HLA-A*02:01 [1]): 0.0002 µM
- Kd (HLA-A*25:01 [2]): ≥ 20 µM
- Kd (HLA-A*26:01 [3]; source organism: Homo sapiens): ≥ 20 µM
- Kd (HLA-A*80:01 [4]): ≥ 20 µM
- Kd (HLA-B*15:01; source organism: Homo sapiens): ≥ 20 µM
- Kd (HLA-B*15:17 [5]; source organism: Homo sapiens): ≥ 20 µM
- Kd (HLA-B*18:01 [6]; source organism: Homo sapiens): ≥ 20 µM
- Kd (HLA-B*27:03; source organism: Homo sapiens): ≥ 20 µM
- Kd (HLA-B*46:01 [7]; source organism: Homo sapiens): ≥ 20 µM
- Kd (HLA-B*51:01 [8]; source organism: Homo sapiens): ≥ 20 µM
- Kd (HLA-B*57:01; source organism: Homo sapiens): ≥ 20 µM

Sequence: LELAEITAE
- Kd (HLA-A*02:01 [9]): ≥ 20 µM
- Kd (HLA-A*02:03): ≥ 20 µM
- Kd (HLA-A*02:11): ≥ 20 µM
- Kd (HLA-A*02:12): ≥ 20 µM
- Kd (HLA-A*02:16): ≥ 20 µM
- Kd (HLA-A*02:19): ≥ 20 µM
- Kd (HLA-A*03:01 [10]): ≥ 20 µM
- Kd (HLA-A*23:01): ≥ 20 µM
- Kd (HLA-A*24:03): ≥ 20 µM
- Kd (HLA-A*26:01 [3]; [29]): ≥ 20 µM
- Kd (HLA-A*29:02 [11]): ≥ 20 µM
- Kd (HLA-A*68:02 [12]): ≥ 20 µM
- Kd (HLA-A*69:01): ≥ 20 µM
- Kd (HLA-B*15:01; [29]): ≥ 20 µM
- Kd (HLA-B*15:17 [5]; [29]): ≥ 20 µM
- Kd (HLA-B*18:01 [6]; [29]): 0.511 µM
- Kd (HLA-B*27:03; [29]): ≥ 20 µM
- Kd (HLA-B*39:01): ≥ 20 µM
- Kd (HLA-B*46:01 [7]; [29]): ≥ 20 µM
- Kd (HLA-B*51:01 [8]; [29]): ≥ 20 µM
- Kd (HLA-B*57:01; [29]): ≥ 20 µM

- IC50 (HLA-A*01:01): ≥ 20 µM
- IC50 (HLA-A*02:01 [13]): ≥ 20 µM
- IC50 (HLA-A*03:01 [14]): ≥ 20 µM
- IC50 (HLA-A*11:01): ≥ 20 µM
- IC50 (HLA-A*24:02): ≥ 20 µM
- IC50 (HLA-A*25:01 [15]): ≥ 20 µM
- IC50 (HLA-A*29:02 [16]): ≥ 20 µM
- IC50 (HLA-A*31:01): ≥ 20 µM
- IC50 (HLA-A*68:02 [17]): ≥ 20 µM
- IC50 (HLA-B*07:02): ≥ 20 µM
- IC50 (HLA-B*08:01): 2.4 µM
- IC50 (HLA-B*14:02): ≥ 20 µM
- IC50 (HLA-B*18:01 [18]): 4.72 µM
- IC50 (HLA-B*35:01): ≥ 20 µM
- IC50 (HLA-B*37:01): ≥ 20 µM
- IC50 (HLA-B*40:02): 0.126 µM
- IC50 (HLA-B*44:03): ≥ 20 µM
- IC50 (HLA-B*51:01 [19]): ≥ 20 µM
- IC50 (HLA-B*53:01): ≥ 20 µM
- IC50 (HLA-B*58:01 [20]): ≥ 20 µM
Sequence: LEYFQFVKKLL

Sequence: NAAEPEQPW
- IC50 (HLA-B*58:01 [21]): 5 µM

Sequence: RAIMTTWTV
- Kd (HLA-A*03:01 [22]): ≥ 20 µM
- Kd (HLA-A*25:01 [23]): ≥ 20 µM
- Kd (HLA-A*26:01 [24]): ≥ 20 µM
- Kd (HLA-A*80:01 [25]): ≥ 20 µM
- Kd (HLA-B*15:17 [26]): 0.06 µM
- Kd (HLA-B*18:01 [27]): ≥ 20 µM
- Kd (HLA-B*46:01 [28]): ≥ 20 µM

Source: the Immune Epitope Database (IEDB)
